Assays:
Aflibercept (Eylea) [1] = molecular target: T1, Aflibercept (Eylea); experiment: Interferometric Reflectance Imaging Sensor (IRIS); equilibrium IRIS signal on drug spots against VEGF concentration, fitted with the Langmuir isotherm; settings: both partners purified
T1 chain: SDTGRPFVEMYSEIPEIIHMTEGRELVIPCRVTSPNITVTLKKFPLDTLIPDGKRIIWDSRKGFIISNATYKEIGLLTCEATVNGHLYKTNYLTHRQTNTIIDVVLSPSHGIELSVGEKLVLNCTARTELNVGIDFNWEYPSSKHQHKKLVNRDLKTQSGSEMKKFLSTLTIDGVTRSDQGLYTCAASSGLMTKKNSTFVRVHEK

Aflibercept (Eylea) [2] = molecular target: T1, Aflibercept (Eylea); experiment: Interferometric Reflectance Imaging Sensor (IRIS); equilibrium IRIS signal on drug spots against VEGF concentration, fitted with the Langmuir-Freundlich isotherm; settings: both partners purified

B1: Recombinant human VEGF165 protein (ligand)
chain: APMAEGGGQNHHEVVKFMDVYQRSYCHPIETLVDIFQEYPDEIEYIFKPSCVPLMRCGGCCNDEGLECVPTEESNITMQIMRIKPHQGQHIGEMSFLQHNKCECRPKKDRARQENPCGPCSERRKHLFVQDPQTCKCSCKNTDSRCKARQLELNERTCRCDKPRR
modifications: disulfide-linked homodimer; N-glycosylated (HEK293 expressed); limits are the conventional mature VEGF165 (191-aa precursor minus 26-aa signal) / human IgG1 Fc (C-terminal, dimerizing …)
How did the Ka (Aflibercept (Eylea) [1]) turn out when B1 was run?
Its Ka is 1.05e+09 M⁻¹.

What about the Kd (Aflibercept (Eylea) [1]) of the same binder?
Its Kd is 17.5 nM.

What about the Ka (Aflibercept (Eylea) [2]) of the same binder?
Its Ka is 1.5e+08 M⁻¹.

What about the Kd (Aflibercept (Eylea) [2]) of the same binder?
The Kd was 66 nM.

Reference: article PMC11274412, “Characterization of Receptor Binding Affinity for Vascular Endothelial Growth Factor with Interferometric Imaging Sensor” (Biosensors, 2024)
